Results from article PMC10138647.

Biological target: GST-cytPERK (cytosolic domain of PERK expressed as a GST fusion protein) (mouse)
Assay: cross-linking; GST-cytPERK (1.3 µM) in solution, phosphate buffer pH 7.4, 2 mM MgCl2, 70 mM KCl, 1 mM DTT; 20 min at 27 °C with UDCA (50, 200, 1000 µM) or without, then 0.4 mM DSS for 30 min at 27 °C; quenched with Tris-HCl; 7% SDS-PAGE, blot with anti-PERK antibody; dimer relative to monomer by densitometry

“GST-cytPERK (cytosolic domain of PERK expressed as a GST fusion protein) (domain or fragment)” was tested. Which stoichiometry N did it give?
Its stoichiometry N is 2.
